Measurements reported in patent US20260234121A1, “DERIVATIVES, IMMUNOGENS, AND ANTIBODIES AND USE OF THE SAME IN DETECTION OF ECSTASY-CLASS COMPOUNDS” (Siemens Healthcare Diagnostics Inc., priority 2023, published 2026).

Experiments:
E1-OVA (55) = assay: ELISA binding of hybridoma supernatant to E1-OVA (55) coated plates, without inhibitor; conditions: hybridoma supernatant mixed with PBS alone
Experimental: All ELISA steps were performed at rt. Wells of a Nunc Maxi-Sorp™ flat-bottom ELISA plates (ThermoFisher Scientific, Waltham, MA) were coated with 50 μL E1-OVA (55), E2-OVA (65), and E3-OVA (72) at a concentration of 1 μg/mL in PBS for 1 h. The plates were flicked dried and remaining binding sites were blocked with 200 μL per well of blocking solution (0.5% casein, 0.05% (v/v) Tween 20 in PBS) for one hour. Plates were washed six times with MilliQ water containing 0.05% (v/v) Tween 20 on Biotek 405 LS plate washer equipped with microplate Biostacker 3 (Biotek, Winooski, VT). 50 μL of serially diluted antibody samples (serial dilutions of serum, hybridoma supernatant, or monoclonal antibodies in PBS) were added to each well and incubated for one hour. Unbound antibodies were removed by washing as described above, and 50 μL of secondary goat anti-rabbit IgG HRP or goat anti-mouse IgG (Fc)-HRP conjugate (ThermoFisher Scientific, USA), diluted 1:3,000 in the blocking solution was added to each well for detection bound rabbit or mouse antibody, respectively. Plates were incubated for one hour, washed and 100 μL of TMB substrate (Moss, Pasadena, MD) was added for 15 min to determine bound peroxidase. Optical density (OD) of the samples at 650 nm was measured using an ELISA plate reader (Molecular Devices LLC., San Jose, CA). The titer of each serum sample was designated as the maximum dilution that yielded at least twice the absorbance of the same dilution of the nonimmune control serum.
(§1) The supernatants were screened in a competitive ELISA for the presence of anti-ecstasy compound monoclonal antibodies (mAbs) as follows. 25 μL of the hybridoma supernatant was mixed with equal volume of PBS alone or containing 20 μg/mL inhibitor (MDA or MDMA) were incubated for 1 h in the wells of E1-OVA (55) coated ELISA plates. The plates were washed and the presence of bound mAbs were detected using goat anti-mouse IgG (Fc)-HRP conjugate and TMB substrate as described above. The level of inhibition of mAb/E1-OVA (55) binding in the presence of the inhibitor was estimated using a Percent (%) Inhibition calculated by the below formula:
[formula] • where “OD650 nm w/o Inhibitor” is the binding response of the antibody sample diluted in PBS alone (with no inhibitor), and the “OD650 nm with Inhibitor” is the binding response of the same antibody sample in the presence of 10 μg/mL of inhibitor (i.e., MDA or MDMA). […]

[1] = Competitive ELISA screening of hybridoma supernatants on E1-OVA (55), inhibitor MDA; assay type: binding
Experimental: (§2) Competitive ELISA was used to assess the presence of anti-Ecstasy-class antibodies in animal sera, hybridoma supernatants, and monoclonal antibody (mAb) samples as well as to estimate the level of antibody cross reactivity to amphetamine (Amph) and methamphetamine (mAmph). Antisera and antibody samples were used at the dilution giving a response of about OD=1 at 650 nm (OD650 nm) in an indirect ELISA. Hybridoma supernatants were diluted 1:2 in PBS. (±)-MDMA, (±)-MDA, (±)-amphetamine, and (±)-methamphetamine were used as inhibitors (Cerilliant Corporation, Round Rock, TX). Microtiter ELISA plates were coated and blocked as described above for indirect ELISA. The inhibitors were serially diluted in PBS. 25 μL of the diluted inhibitor was mixed with 25 μL of fixed appropriate antiserum or antibody sample dilution. The mixture was incubated over the E1-OVA (55) solid phase for 1 h. The plates were washed as described above and the bound antibodies were detected with anti-rabbit or anti-mouse IgG HRP-conjugates and TMB substrate as described above.
as §1
(§3) [formula] • where “OD650 nm w/o Inhibitor” is the binding response of the antibody sample diluted in PBS alone (with no inhibitor), and the “OD650 nm with Inhibitor” is the binding response of the same antibody sample in the presence of 10 μg/mL of inhibitor (i.e., MDA or MDMA).

[2] = Competitive ELISA screening of hybridoma supernatants on E1-OVA (55), inhibitor MDMA; assay type: binding
Experimental: as §2, §1, §3

[3] = Prototype EMIT ecstasy assay, cross-reactivity with amphetamine; assay type: biochemical; conditions: conjugate Compound 58; negative urine pool
[4] = Prototype EMIT ecstasy assay, cross-reactivity with methamphetamine; assay type: biochemical; conditions: conjugate Compound 58; negative urine pool
[5] = Competitive ELISA of purified antibodies on E1-OVA (55), MDMA and MDA reactivity; assay type: binding; conditions: 10,000-0.1 ng/mL range of drug concentration
Experimental: as §2
(§4) The anti-ecstasy class mAbs were purified from clarified and filtered hybridoma culture supernatants on a recombinant Protein A Sepharose Fast Flow (GE Life Sciences, Boston USA), dialyzed against PBS containing 0.02% sodium azide and stored at 4° C. The purified mAbs were tested for MDA and MDMA reactivity as well as amphetamine (Amph) and methamphetamine (mAmph) cross reactivity in a competitive assay.

[6] = Competitive ELISA of purified antibodies on E1-OVA (55), amphetamine and methamphetamine cross reactivity; assay type: binding
Experimental: as §2, §4

[7] = inhibition of mAb/E1-OVA (55) binding

B1: 178K 2B7 mAb: mouse monoclonal antibody raised against E1-KLH (56); IgG2b, κ; heavy chain SEQ ID NO 87, light chain SEQ ID NO 111 (antibody)
heavy: MNFGLSLIFLALILKGVQCEVQLVESGGDLVRPGGSLKLSCASSGFIFSNYVMSWVRQTPDKRLEWVATINSGGRFTYYPDSVKGRFTISRDNAKNTLFLQMNSLKPEDTAIYYCAGGNNLDYWGQGTTLTVSSAKTTPPSVYPLAPGCGDTTGSSVTLGCLVKGYFPESVTVTWNSGSLSSSVHTFPALLQSGLYTMSSSVTVPSSTWLSQTVTCSVAHPASSTTVDKKLEPSGPISTIKPCPPCKECHKCPAPNLEGGPSVFIFPPNIKDVLMISLTPKVTCVVVDVSEDDPDVQISWFVNNVEVHTAQTQTHREDYNSTIRVVSALPIQHQDWMSGKEFKCKVNNKDLPSPIERTISKIKGLVRAPQVYILPPPAEQLSRKDVSLTCLVVGFNPGDISVEWTSNGHTEENYKDTAPILDSDGSYFIYSKLNMKTSKWEKTDSFSCNVRHEGLKNNYLKKTISRSPGK
light: MRFSAQLLGLLVLWIPGSTADIVMTQAEFSNPVTLGTSASISCRSSKSLLQRSGITYLYWYLQKPGQSPQLLIYRMSNLASGVPDRFSSSGSGTDFTLRISRVEAEDVGVYYCGQDMELPYTFGGGTKLEIKRADAAPTVSIFPPSSEQLTSGGASVVCFLNNFYPKDINVKWKIDGSERQNGVLNSWTDQDSKDSTYSMSSTLTLTKDEYERHNSYTCEATHKTSTSPIVKSFNRNEC
With B1 the “E1-OVA (55) Binding, OD650 nm w/o inhib” value (E1-OVA (55)) was 3.497 OD650 nm, the “E1-OVA (55) Binding, OD650 nm +MDA” value ([1]; hybridoma supernatant in the presence of 10 μg/mL MDA) was 0.429 OD650 nm and the “% Inhibition by 10 μg/mL of MDA” value [1, 7] was 88%. The “E1-OVA (55) Binding, OD650 nm +MDMA” value ([2]; hybridoma supernatant in the presence of 10 μg/mL MDMA) was 0.374 OD650 nm, the “% Inhibition by 10 μg/mL of MDMA” value [2, 7] was 89% and the “Concentrations (μg/mL) of Structurally Related Compounds Equivalent to 500 ng/mL MDMA Cutoffs, (+/−) Amph” value [3] was 40 to 45 µg/mL. The “Concentrations (μg/mL) of Structurally Related Compounds Equivalent to 500 ng/mL MDMA Cutoffs, (+/−) mAmph” value [4] was 50 to 60 µg/mL, the “relative sensitivity to MDMA and MDA in competitive ELISA” value [5] was “bind MDMA stronger than MDA” and the “cross reactivity in the presence of 1,000 ng/ml of Amph or mAmph” value [6] was “do not show any significant cross reactivity”.
